Values joined by “and” are separate entries in the source; they are usually repeats but may differ in a detail not shown here. Identical values can stand only once.
Assays:
[1] = molecular target: engineered strepII-tagged H77c-derived soluble native-like E1E2 (Hepatitis C virus genotype 1a, isolate H77 (H77c)); experiment: mass photometry
[2] = molecular target: engineered strepII-tagged H77c-derived soluble native-like E1E2 (hepatitis C virus, strain H77c); experiment: mass photometry

Substance | relative abundance of the 1:1 E1E2:Ab complex [1] | relative abundance of the 2:1 E1E2:Ab complex [1] | stoichiometry N [1] | stoichiometry N [2] | other results
AR3C monoclonal antibody | 60% | 40% | 1 E1E2:Ab and 2 E1E2:Ab | – | –
AR4A monoclonal antibody | 60% | 40% | 1 E1E2:Ab and 2 E1E2:Ab | – | –
AR4A/AR3C CamX6 hinge bispecific antibody (CrossMab) | – | – | – | 1 E1E2:Ab | –
AR4A/AR3C IgG1 hinge bispecific antibody | – | – | – | 2 E1E2:Ab | relative abundance of the 2:1 E1E2:Ab complex [2]: 67%; stoichiometry N (E1E2:Ab (2:2 complex)) [2]: 1; stoichiometry N (E1E2:Ab (3:2 complex)) [2]: 1.5
AR4A/AR3C IgG3C- hinge bispecific antibody (CrossMab) | – | – | – | 1 E1E2:Ab | –

Reference: article PMC12012487
